Measurements from US10877024B2, “Methods of determining interferon having direct inhibitory effects on tumors and uses thereof” (SUPERLAB FAR EAST LIMITED, priority 2015, dated 2020).

Key:
[1] = tested on: Human Cervical Cancer Hela Xenografts; assay: rSIFN-co on human cervical cancer Hela xenografts in nude mice; format: in vivo; conditions: for TV(mm^3, mean ± SD) (D 0): day 0; for % Inhibition / T/C (%) / TV(mm^3, mean ± SD) (D 28): day 28
Protocol: Then 1.5 mm^3 fragments were prepared for s.c. implantation into the animals.

[2] = tested on: beta-catenin/TCF mediated transcriptional activity; assay: Beta-catenin/TCF transcription reporter assay (TOPFlash); format: cell-based, human; conditions: 10 mcg/ml, 24 hours
Protocol: The effect of rSIFN-co on Wnt/Beta-catenin signaling in vitro was determined. Cancer cells were plated in 96-well plates (at 1×10^4 cells per well), and incubated for 12 hours, after which they were transiently transfected with 100 ng TOPFlash (Millipore Corporation, Billerica, Mass., USA). […] After interferon treatment for 24 hours, luciferase assay was performed using the Dual Luciferase Assay System kit according to the manufacturer's protocols (Cat #:E1960, Promega). Relative luciferase activity was reported as a ratio of firefly/renilla luciferase activity. Experiments were performed in triplicate.

Lung cancer cells, A549 = assay: Colony and pseudopod formation in three dimensional Matrigel culture; format: cell-based, human; conditions: 10 mcg/ml
Protocol: Matrigel (from BD Corporation, Cat #: 356234) was thawed on ice in a 4° C. refrigerator overnight, and a 24-well plate was frozen at −20° C. overnight. Thereafter, each well of the frozen 24-well plate was coated with 150 μl of the Matrigel at 1.0 mg/ml. The Matrigel coated plate was then incubated 37° C. for 20-30 min. Lung cancer cells, A549, were trypsinized and counted. […] The cells were incubated at 37° C. for at least about 8 days. About 200 μl of the above conditioned medium was added every 3 days to prevent the medium from drying. On the 4th or 8th day, photographs were taken to observe the size of the colonies and invasive feet (pseudopod) formation. The experiment was conducted in triplicate.

Survivin = assay: qPCR of Wnt signaling downstream gene in A549 cells; format: cell-based, human; conditions: 10 μg/ml, 24 hr
Protocol: After 24 hr of treatment, cellular total mRNA was isolated using TRIZOL Reagent and cDNA was synthesized and further subjected to qPCR, using specific primers of four (4) Wnt signaling downstream genes, Axin2, CD24, Survivin and ID2. Experiments were conducted in triplicate and normalized with the Mock group.
Total mRNA was isolated using TRIZOL Reagent (Invitrogen, Carlsbad, Calif.) according to the manufacturer's instructions. Complementary DNA (cDNA) was synthesized using a RT-PCR Kit (Cat #:FSQ-101, TOYOBO, Japan) according to the manufacturer's instructions and then subjected to qPCR with a SYBR Green PCR kit (Cat #: QPK-201, TOYOBO, Japan). The primers of the four Wnt pathway target genes were as follows: Axin2 sense primer: 5′-[…]-3′ (SEQ ID NO:8) and antisense primer: 5′-[…]-3′(SEQ ID NO: 9); CD24 sense primer: 5′-[…]-3′ (SEQ ID NO: 10) and antisense primer: 5′-[…]-3′(SEQ ID NO: 11); Survivin sense primer: 5′-[…]-3′ (SEQ ID NO: 12) and antisense primer: 5′-[…]-3′ (SEQ ID NO: 13) and ID2 sense primer: 5′-[…]-3′ (SEQ ID NO: 14) and antisense primer: 5′-[…]-3′(SEQ ID NO: 15).
The amplification protocol consisted of incubations at 95° C. for 1 minute, 40 cycles (95° C. for 15 seconds, 60° C. for 15 seconds, 72° C. for 30 seconds). Incorporation of the SYBR Green dye into PCR products was monitored in real time with a Bio-Rad Detection System and subsequently analyzed using Bio-Rad CFX manager 2.1 software. The samples were pooled for each condition and run in duplicate. Treated samples were compared to Mock using the 2^−ΔΔCt method and plotted as fold change. GAPDH was used as the normalization control.

KLF4 = assay: qPCR of tumor suppressor gene; format: cell-based, human; conditions: 10 mcg/ml, 24 hr
Source text: (§1) After 24 hr of treatment, total cellular mRNA was isolated using TRIZOL Reagent, and cDNA was synthesized, and further subjected to qPRC using specific primers for DKK3, KLF4 and BATF2. The following primers were used: for BATF2, sense primers: 5′-[…]-3′ (SEQ ID NO: 16) and antisense primers: 5′-[…]-3′ (SEQ ID NO: 17); for DKK3, sense primers: 5′-[…]-3′(SEQ ID NO: 18) and antisense primers: 5′-[…]-3′ (SEQ ID NO: 19); for KLF4, sense primers: 5′-[…]-3′ (SEQ ID NO: 20) and antisense primers: 5′-[…]-3′ (SEQ ID NO: 21).
(§2) The experiment was conducted in triplicate and normalized with the mock control group. Results, shown in FIG. 12, were expressed as relative mRNA expression level in relation to that of GAPDH.

BATF2 = assay: qPCR of tumor suppressor gene; format: cell-based, human; conditions: A549 cells, 10 mcg/ml, 24 hr
Source text: as §1, §2

DKK-3 = assay: qPCR of tumor suppressor gene; format: cell-based, human; conditions: A549 cells, 10 mcg/ml, 24 hr
FZD6 = assay: qPCR of Wnt-related receptor mRNA; format: cell-based, human; conditions: 10 μg/ml, 24 hr
Protocol: The regulation of LRP6/FZD6 by rSIFN-co was investigated. This was conducted by qPCR as performed in Example 9. […] After 24 hr of treatment, total cellular mRNA was isolated using TRIZOL Reagent, and cDNA was subjected to qPCR using specific primers of LRP6 and FZD6. The primers used were: LRP6 sense primer: 5′-[…]-3′ (SEQ ID NO: 4) and antisense primer: 5′-[…]-3′ (SEQ ID NO: 5), and FZD6 sense primer: 5′-[…]-3′ (SEQ ID NO: 6) and antisense primer: 5′-[…]-3′ (SEQ ID NO: 7). Experiments were conducted in triplicate and normalized with the Mock control group. Results were recorded as relative mRNA level of either LRP6 or FZD6 relative to GAPDH.

[3] = 0.05 mg/mouse i.t. every other day
[4] = 0.10 mg/mouse i.t. every other day
[5] = 0.15 mg/mouse i.t. every other day

B1: rSIFN-co: Recombinant super-compound interferon; amino acid sequence SEQ ID NO: 1 (same as INFERGEN), encoded by novel nucleotide sequence SEQ ID NO: 2 (protein)
chain: MCDLPQTHSLGNRRALILLAQMRRISPFSCLKDRHDFGFPQEEFDGNQFQKAQAISVLHEMIQQTFNLFSTKDSSAAWDESLLEKFYTELYQQLNDLEACVIQEVGVEETPLMNVDSILAVKKYFQRITLYLTEKKYSPCAWEVVRAEIMRSFSLSTNLQERLRRKE
modifications: Amino acid sequence of recombinant interferon
[1]; [3]
  TV(mm^3, mean ± SD) (D 0): 135 ± 26 mm^3
  % Inhibition: 46.67%
  T/C (%): 53.33%
  TV(mm^3, mean ± SD) (D 28): 886 ± 232 mm^3
[1]; [4]
  TV(mm^3, mean ± SD) (D 0): 135 ± 28 mm^3
  % Inhibition: 46.67%
  T/C (%): 53.33%
  TV(mm^3, mean ± SD) (D 28): 865 ± 186 mm^3
[1]; [5]
  TV(mm^3, mean ± SD) (D 0): 136 ± 25 mm^3
  % Inhibition: 40.40%
  T/C (%): 59.60%
  TV(mm^3, mean ± SD) (D 28): 1025 ± 400 mm^3
[1]; 0.05-0.15 mg/mouse i.t. every other day, 28 days
  tolerability, signs of toxicity: tolerated the rSIFN-co treatments with no signs of toxicity
[1]; 28-day treatment period
  change in average body weight: Very little change in average body weight
[2]; A549 cells, Control about 310
  Firefly/Renilla ratio: about 100
[2]; H460 cells, Control about 450
  Firefly/Renilla ratio: about 280
[2]; H1299 cells, Control about 800
  Firefly/Renilla ratio: about 500
[2]; HT-29 cells, Control about 300
  Firefly/Renilla ratio: about 200
[2]; SW620 cells, Control about 1500
  Firefly/Renilla ratio: less than 100
Lung cancer cells, A549; after 4 days
  size of the colonies: smaller colonies than the untreated group
Lung cancer cells, A549; after 8 days
  invasive feet (pseudopod) formation: almost no extrusive pseudopodium around the cells
  size of the colonies: smallest colonies of the 3 groups
Survivin
  relative expression level of Survivin mRNA (Mock control set at 1): about 0.4
KLF4; A549 cells
  relative mRNA expression level of KLF4: dramatically increased
KLF4; SW620 cells
  relative mRNA expression level of KLF4: dramatically increased as compared to control and IFN alpha-2b treatment
BATF2
  relative mRNA expression level of BATF2: dramatically increased
DKK-3
  relative mRNA expression level of DKK-3: dramatically increased
FZD6; A549 cells
  relative expression of FZD6 mRNA: significant reduction
FZD6; H460 cells
  relative expression of FZD6 mRNA: significant reduction
FZD6; HT-29 cells
  relative expression of FZD6 mRNA: significant reduction
FZD6; SW620 cells
  relative expression of FZD6 mRNA: significant reduction
